This note sets out measurements from patent US20130079286A1 (Pieris, published 2013).

For orientation: Kd means the concentration at which binding is half-saturated. The koff is the first-order rate constant of dissociation. The kon is the rate constant with which the complex forms.

The target of test [1] is T1, recombinant human fibronectin fragment FN7B8 (human, UniProt P02751 1173-1448).
T1 construct: no separate number is printed for the protein, so the entry may be a nucleic acid
Kind of test: SPR (BIAcore X), FN7B8 amine-coupled (about 500 RU), mutein as analyte. The source says: FIG. 13 depicts the kinetic real time analysis of Lcn2 mutein N9B measured on a Biacore instrument. FN7B8 was coupled via amine chemistry to a CMD 200 m sensor chip (ΔRU=500) and the purified Lcn2 mutein was applied at varying concentrations. The measured signal is shown as a grey line whereas the curve fit is depicted as a black line in each case.
FIG. 14 depicts the kinetic real time analysis of Lcn2 mutein N7E measured on a Biacore instrument. FN7B8 was coupled via amine chemistry to a CMD 200 m sensor chip (ΔRU=500) and the purified Lcn2 mutein was applied at varying concentrations. The measured signal is shown as a grey line whereas the curve fit is depicted as a black line in each case.
Real time analysis of Lcn2 muteins was performed on a BIAcore X system (BIAcore, Uppsala, Sweden) using HBS/ET (20 mM Hepes, pH 7.5, 150 mM NaCl, 1 mM EDTA containing 0.005% (v/v) Tween 20) as running buffer. 200 μg/ml solution of recombinant FN7B8 in 10 mM Na-acetate, pH 4.0 was immobilized on a CMD 200 m Sensorchip (XanTec bioanalytics, Duesseldorf, Germany) using standard amine coupling chemistry (Biacore, Uppsala, Sweden), resulting in a ligand density of about 500 resonance units (RU). The purified Lcn2 mutein was applied at a flow rate of 25 μl/min at concentrations of 2.5 up to 160 nM. The sensorgrams were corrected by subtraction of the corresponding signals measured for the control channel, which had been activated and blocked with ethanolamine.
A general note: SPR reads the build-up and loss of mass on a sensor chip optically.

Test [2] has as its target T2, recombinant fibronectin single domain ED-B (human).
T2 construct: the entry may be a nucleic acid; also called extra domain-B; extra-domain B
Kind of test: SPR (BIAcore X), ED-B amine-coupled (about 180 RU), mutein as analyte. On the procedure:
(§1) FIG. 27 depicts the kinetic real time analysis of Lcn2 variants N7A (A), N7E (B), N9B (C) and N10D (D) measured on a Biacore X instrument. The single fibronectin domain ED-B was coupled via amine chemistry to a CMD 200 m sensor chip (ΔRU=180) and the purified Lcn2 variants were applied at varying concentrations. The measured signals are shown as traces together with the curve fits.
(§2) Real time interaction analysis of Lcn2 muteins was performed on a BIAcore X instrument using HBS/ET (20 mM Hepes, pH 7.5, 150 mM NaCl, 1 mM EDTA containing 0.005% (v/v) Tween 20) as running buffer. 100 μg/ml solution of recombinant ED-B in 10 mM Na-acetate, pH 4.0 was immobilized on a CMD 200 m Sensorchip using standard amine coupling chemistry, resulting in a ligand density of about 180 resonance units (RU). The purified Lcn2 mutein was applied at a flow rate of 25 μl/min at concentrations of 2.5 up to 160 nM. The sensorgrams were corrected by subtraction of the corresponding signals measured for the control channel, which had been activated and blocked with ethanolamine. […] In the case of N10D the heterogeneous analyte competing reaction model was used for data fitting, resulting in two sets of kinetic constants.

For test [3], the target named is T1, recombinant human fibronectin fragment …. Nature of the test: ELISA: FN7B8 coated, mutein titrated, detected via Strep-tag II. A general note: ELISA stands for enzyme-linked immunosorbent assay.
Test [4] concerns the target T2, recombinant fibronectin single domain …. Nature of the test: SPR (BIAcore X), ED-B immobilised by amine coupling, Lcn2 mutein injected at 0 to 160 nM, 1:1 model. As to the method:
as §1, §2

Test [5] deals with T3, Trx-Aβ28 fusion protein (Escherichia coli (strain K12), UniProt P0AA25 1-76 = thioredoxin, Biotin-labelled through an NHS ester (2:1) in the capture and competitive ELISAs; unlabeled in the direct ELISA and as competitor.).
T3 construct: the entry may be a nucleic acid; also called TrxAbeta28H6
Nature of the test: capture ELISA: mutein captured via Strep-tag II, biotinylated Trx-Aβ28 titrated. As to the method:
(§3) FIG. 19 depicts the binding activity of the Lcn2 muteins H1GA, H1GV, and H1-G1 in capture ELISAs with the biotinylated Aβ targets Aβ40 (A) and Trx-Aβ28 (B). StrepMAB-Immo was immobilized at 10 μg/ml on microtitre plates and employed for capturing of 1 μM Lcn2 muteins via the Strep-tag H. Binding of the biotinylated targets, applied in a dilution series, was then detected by incubation with ExtrAvidin/AP and a subsequent chromogenic reaction with pNPP. […] The data were fitted to a monovalent binding model.

Test [6] addresses T4, biotinylated Aβ40 peptide (human, C-terminal biotin group attached via a lysine spacer).
T4 construct: Synthetic peptide (Peptide Speciality Laboratory) with a C-terminal biotin on a lysine spacer; used in the capture ELISAs
Nature of the test: capture ELISA: mutein captured via Strep-tag II, biotinylated Aβ40 titrated. On the procedure:
as §3

Test [7] concerns the target T3, Trx-Aβ28 fusion protein. Nature of the test: direct ELISA: Trx-Aβ28 coated, mutein titrated, detected via Strep-tag II. On the procedure: The Aβ targets Trx-Aβ28 and MBP-Aβ40 as well as the control protein maltose binding protein (MBP) were immobilized at 2 μM in PBS over night. Bound Lcn2 muteins were detected via their Strep-tag II using Streptavidin/AP followed by a chromogenic reaction with pNPP. As a control, the binding of wild-type (wt) lipocalin was tested. The data were fitted to a monovalent binding model.
Alternatively, for a “direct” ELISA, 2 μM unlabeled Aβ40 target from Example 2 was adsorbed onto a 96-well MaxiSorp polystyrene microliter plate (Nunc, Langenselbold, Germany) and incubated with the purified Lcn2 mutein, which was detected via the Strep-tag II using a 1:1500 dilution of Streptavidin/AP conjugate (GE Healthcare UK Ltd, Buckinghamshire, UK). As a control, 2 μM MBP from Example 2 was adsorbed onto the ELISA plate. Absorption at 405 nm was measured in a SpectraMax 250 reader (Molecular Devices, Sunnyvale, USA).

The target in test [8] is T5, ovalbumin (UniProt P01012 2-386).
T5 sequence (looked up): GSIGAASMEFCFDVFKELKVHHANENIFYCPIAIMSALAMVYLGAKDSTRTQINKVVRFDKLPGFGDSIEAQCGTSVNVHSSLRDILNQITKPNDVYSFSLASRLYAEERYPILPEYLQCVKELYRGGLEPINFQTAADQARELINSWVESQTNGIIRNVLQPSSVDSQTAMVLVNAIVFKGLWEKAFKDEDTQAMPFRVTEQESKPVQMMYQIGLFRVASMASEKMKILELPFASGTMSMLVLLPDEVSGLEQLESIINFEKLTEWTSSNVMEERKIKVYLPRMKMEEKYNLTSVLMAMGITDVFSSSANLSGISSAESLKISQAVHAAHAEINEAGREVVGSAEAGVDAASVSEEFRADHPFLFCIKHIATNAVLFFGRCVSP
Kind of test: capture ELISA: 1 µM Lcn2 protein captured via Strep-tag II on coated StrepMAB-Immo, biotinylated target titrated, ExtrAvidin/AP + pNPP. On the procedure:
(§4) FIG. 5 depicts the binding activity of the Lcn2 muteins H1-G1, S1-A4, and US7 in capture ELISAs with different biotinylated Aβ targets. StrepMAB-Immo at 10 μg/ml was immobilized on microtitre plates and employed for capturing of 1 JAM Lcn2 muteins via the Strep-tag H. In figures A to C the binding of the Lcn2 muteins S1-A4 and US7 to (A) biotinylated Aβ40, (B) biotinylated Trx-Aβ28, and (C) biotinylated MBP-Aβ40 are shown. Binding was detected by incubation with ExtrAvidin/AP and a subsequent chromogenic reaction with pNPP. Ovalbumin (Ova), thioredoxin (Trx), and maltose binding protein (MBP) were used as negative controls. Additionally, binding of wild-type (wt) lipocalin was tested. The data were fitted to a monovalent binding model.
(§5) For selective capturing of the Lcn2 muteins carrying the C-terminal Strep-tag II (Schmidt and Skerra (2007) Nat. Protoc. 2, 1528-1535), a 96-well MaxiSorp polystyrene microtitre plate (Nunc, Langenselbold, Germany) was coated with 10 μg/mL StrepMAB-Immo (IBA, Göttingen, Germany) in PBS over night at 4° C. and blocked with 3% (w/v) BSA in PBS/T at room temperature for 1 h. After 3 washing steps with PBS/T, 50 μL of a 1 μM solution of the purified Lcn2 muteins from Example 7 were applied to all wells for 1 h. After washing, 50 μL of a dilution series of the biotinylated targets Aβ40, MBP-Aβ40 or Trx-Aβ28 from Example 2 were added and incubated for 1 h whereby the biotinylated forms of Ova, MBP and Trx from Example 2 served as negative control proteins. The wells were washed again and bound conjugate was detected with 50 μL of ExtrAvidin/AP conjugate (Sigma-Aldrich, Steinheim, Germany) diluted 1:5000 in PBS/T for 1 h, followed by signal development in the presence of 100 μL 0.5 mg/mL p-nitrophenyl phosphate (AppliChem, Darmstadt, Germany) in 100 mM Tris/HCl, pH 8.8, 100 mM NaCl, 5 mM MgCl₂.

The target in test [9] is T4, biotinylated Aβ40 peptide. Nature of the test: capture ELISA: mutein captured via Strep-tag II on StrepMAB-Immo, biotinylated Aβ40 titrated. On the procedure: as §4, §5
The target in test [10] is T3, Trx-Aβ28 fusion protein. Kind of test: capture ELISA: mutein captured, biotinylated Trx-Aβ28 titrated. As to the method: as §4, §5
The target in test [11] is T6, BSA (bovine, UniProt P02769 25-607).
T6 construct: also called bovine serum albumin
Nature of the test: ELISA on coated protein.

For test [12], the target named is T7, recombinant human fibronectin fragment FN789 (human, UniProt P02751 1173-1539).
T7 construct: the entry may be a nucleic acid
Kind of test: ELISA on coated protein.

Test [13] has as its target T2, recombinant fibronectin single domain …. Kind of test: SPR (BIAcore X), ED-B amine-coupled; heterogeneous analyte competing reaction model, second set. On the procedure: as §2
Test [14] has the same target. Nature of the test: SPR (BIAcore X), ED-B amine-coupled; heterogeneous analyte competing reaction model, first set. As to the method:
as §2

T1 sequence (P02751 other isoform, or with tags, fused parts or gaps limits assumed): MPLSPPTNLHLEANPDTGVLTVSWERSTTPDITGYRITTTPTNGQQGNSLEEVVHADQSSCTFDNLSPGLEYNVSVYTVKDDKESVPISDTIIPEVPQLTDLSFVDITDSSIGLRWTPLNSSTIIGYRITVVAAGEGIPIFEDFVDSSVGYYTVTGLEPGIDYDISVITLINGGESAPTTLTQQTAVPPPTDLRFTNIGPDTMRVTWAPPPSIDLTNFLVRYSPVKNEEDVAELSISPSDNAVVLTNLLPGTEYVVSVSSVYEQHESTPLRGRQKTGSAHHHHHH
T2 sequence (chain, as listed by the source limits assumed): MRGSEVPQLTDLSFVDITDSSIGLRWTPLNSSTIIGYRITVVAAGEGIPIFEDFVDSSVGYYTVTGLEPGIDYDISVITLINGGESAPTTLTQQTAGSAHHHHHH
T4 sequence (peptide, as listed by the source): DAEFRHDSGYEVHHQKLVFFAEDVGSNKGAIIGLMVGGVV
T6 sequence (P02769 25-607 limits assumed): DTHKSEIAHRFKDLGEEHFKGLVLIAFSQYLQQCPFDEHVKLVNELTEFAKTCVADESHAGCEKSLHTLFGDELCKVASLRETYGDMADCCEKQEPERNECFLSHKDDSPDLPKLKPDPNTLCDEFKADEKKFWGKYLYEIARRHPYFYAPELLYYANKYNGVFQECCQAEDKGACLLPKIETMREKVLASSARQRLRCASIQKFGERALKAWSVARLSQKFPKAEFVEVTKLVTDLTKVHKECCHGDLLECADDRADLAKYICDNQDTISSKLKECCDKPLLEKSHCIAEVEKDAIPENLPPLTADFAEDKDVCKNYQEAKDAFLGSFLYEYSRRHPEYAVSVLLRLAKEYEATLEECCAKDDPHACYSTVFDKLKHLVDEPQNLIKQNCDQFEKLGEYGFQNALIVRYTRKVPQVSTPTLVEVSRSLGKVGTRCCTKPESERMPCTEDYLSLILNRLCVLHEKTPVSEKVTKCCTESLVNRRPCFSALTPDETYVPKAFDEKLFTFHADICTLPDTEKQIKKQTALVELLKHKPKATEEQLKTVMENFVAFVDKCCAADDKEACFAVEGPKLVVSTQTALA
T7 sequence (P02751 other isoform, or with tags, fused parts or gaps limits assumed): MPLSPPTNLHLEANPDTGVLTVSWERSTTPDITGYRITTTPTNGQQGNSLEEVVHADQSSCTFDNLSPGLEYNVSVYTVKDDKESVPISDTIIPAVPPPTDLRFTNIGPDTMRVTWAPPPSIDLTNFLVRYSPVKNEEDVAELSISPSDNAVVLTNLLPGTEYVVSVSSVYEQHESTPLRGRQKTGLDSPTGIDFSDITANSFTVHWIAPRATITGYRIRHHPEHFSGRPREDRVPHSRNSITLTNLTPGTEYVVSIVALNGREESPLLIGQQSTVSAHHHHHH

B1: Lcn2 mutein N7E (designed binder)
chain: QDSTSDLIPAPPLSKVPLQQNFQDNQFHGKWYVVGEAGNSLLREDKDPRKMYATIYELKEDKSYNVTSVRFRSKKCHYLIRTFVPGSQPGEFTLGLIKSKPGHTSFLVRVVSTNYNQHAMVFFKTVAQNREYFFITLYGRTKELTSELKENFIRFSKSLGLPENHIVFPVPIDQCIDG
Regarding B1, the Kd in test [1] worked out at 7.2 nM; in test [2] it was 17.3 nM; in test [3] it was 30 nM; in [4] it was 17 nM. Further, the koff in [1] stood at 0.03 s⁻¹; in [2], 0.054 s⁻¹. In addition, the kon was 4.1e+06 M⁻¹ s⁻¹ in [1] and 3.1e+06 M⁻¹ s⁻¹ in test [2].

B2: Lcn2 mutein H1-G1 (designed binder)
chain: QDSTSDLIPAPPLSKVPLQQNFQDNQFHGKWYVVGCAGNVLLREDKDPLKMYATIYELKEDKSYNVTSVGFDDKKCLYKIRTFVPGSQPGEFTLGRIKSEPGGTSWLVRVVSTNYNQHAMVFFKEVAQNRETFNITLYGRTKELTSELKENFIRFSKSLGLPENHIVFPVPIDQCIDG
notes: carries a free Cys at position 36
Take B2: the Kd in [5] turned out to be 24.4 nM; in test [6] it was 21.5 nM; in [7], 290 nM; in test [9] it was 16.2 nM; in test [10], 24.3 nM. Besides, the binding result in test [8] is on record as “no binding”.

B3: Lcn2 mutein N7A (designed binder)
chain: QDSTSDLIPAPPLSKVPLQQNFQDNQFHGKWYVVGKAGNHDLREDKDPRKMQATIYELKEDKSYNVTNVRFVHKKCNYRIWTFVPGSQPGEFTLGNIKSWPGLTSWLVRVVSTNYNQHAMVFFKRVYQNRELFEITLYGRTKELTNELKENFIRFSKSLGLPENHIVFPVPIDQCIDG
As for B3, the Kd in [1] was 5.8 nM; in test [2], 127 nM; in [3] it was 14.8 nM; in [4], 120 nM. Besides, the koff in test [1] worked out at 0.026 s⁻¹; in test [2], 0.138 s⁻¹. The results for the kon in [1] and in test [2] were 4.6e+06 M⁻¹ s⁻¹ and 1.8e+06 M⁻¹ s⁻¹, respectively. In addition, the binding result in [11] and in test [12] was “no binding” in each case.

B4: Lcn2 mutein N10D (designed binder)
chain: QDSTSDLIPAPPLSKVPLQQNFQDNQFHGKWYVVGAAGNTWLREDKDPYKMQATIYELKEDKSYNVTNVLFMSKKCRYMIHTFVPGSQPGEFTLGSIKSWPGLTSWLVRVVSTNYNQHAMVFFKRVYQNREFFGITLYGRTKELTSELKENFIRFSKSLGLPENHIVFPVPIDQCIDG
notes: also called NIOD; NI OD
With B4, the results for the Kd in [1] and in test [3] were 38 nM and 51.2 nM, respectively. The koff turned out to be 0.058 s⁻¹ in test [1], 0.00335 s⁻¹ in test [13] and 0.064 s⁻¹ in test [14]. Further, the results for the kon in test [1], in test [13] and in test [14] were 1.5e+06 M⁻¹ s⁻¹, 29400 M⁻¹ s⁻¹ and 621000 M⁻¹ s⁻¹, respectively. Also, the binding result in test [11] and in test [12] was “no binding” in each case.
